According to the supplement of paper PMC9732359:
± gives the uncertainty stated by the source.

Assay: protein stability index of a GFP-peptide fusion (yeast GPS) (PSI 1-4); higher = more stable; sorted into four equal gates, so the index is relative within each strain
Settings: doa10∆
Procedure, shortened: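 Yeast carrying a pooled library were grown to mid-log phase in leucine-free medium. Each library plasmid expresses Cherry and has a tiled 17-residue yeast protein peptide fused downstream of GFP. Cells were sorted into four equal gates by GFP/Cherry ratio, and plasmids from each gate were PCR-amplified, Illumina-sequenced and assigned to strains by barcode. Summing, across gates, the read frequency times the gate number gave each peptide's protein stability index.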
For QRDFRKHGAVHMSTYLK [RPL21B], the protein stability index was 2.65 ± 0.048.
QRETMKERKLRENIAML [SMC1] showed a protein stability index of 3.42 ± 0.24.
For QRHIAVGKQIVNIPSFM [RPS9A], the protein stability index was 2.48 ± 0.056.
With QRIIADLSADKPTSPFI [SRB8] the protein stability index was 2.78 ± 0.041.
Sequence QRQERLRQQQQQQDQPE [RPN10] has a protein stability index of 3.34 ± 0.098.
In the case of QRSNISTAIKSLVALGI [CDC53], the protein stability index is reported as 1.86 ± 0.047.
Work on QRVCLRSDSYMLHKVLE [RPT6] yielded a protein stability index of 2.84 ± 0.084.
Work on QSESRQKRQLHDISKTE [SNU114] yielded a protein stability index of 3 ± 0.096.
Work on QSKKLIEEKLSSFSKKT [YIL149C/MLP2] yielded a protein stability index of 2.9 ± 0.056.
In the case of QSKLKDVVEYLDKVINK [RPN8], the protein stability index is reported as 2.73 ± 0.094.
Sequence QSLDTIGGSDAAFEKRY [RPO21] has a protein stability index of 3.25 ± 0.095.
In the case of QSYGGRPYGVGLLIIGY [PRE5], the protein stability index is reported as 2.96 ± 0.078.
With QTANEKHITVRLTAKRL [SRP14] the protein stability index was 2.75 ± 0.1.
In the case of QTAVTCESCSTVLCTPT [RPS27B], the protein stability index is reported as 1.89 ± 0.055.
QTLLQRSEDPAGLGKTN [YGR119C/NUP57] showed a protein stability index of 3.31 ± 0.084.
Sequence QTLYTGDKVVVTIWYRA [SSN3] has a protein stability index of 1.22 ± 0.058.
In the case of QVVGPFHTSFSAVVGPN [SMC4], the protein stability index is reported as 2.53 ± 0.063.
QWSMVAQRLQISDYQQL [SWI1] gave a protein stability index of 1.53 ± 0.057.
For QWTGGRGGGHHSFEDAH [FAS1], the protein stability index was 3.21 ± 0.24.
QWYTLQSQLNVTLSQLV [MED8] showed a protein stability index of 1.54 ± 0.034.
Work on QYMEELADDDEERFSEL [RPL5] yielded a protein stability index of 1.12 ± 0.14.
RAFLIEEQKIVKKVVKE [RPL34A] showed a protein stability index of 3.25 ± 0.099.
Work on RAIILERNAAYQKEYET [RPL7A] yielded a protein stability index of 2.59 ± 0.067.
Work on RAKALGIKVTNPKGRLA [RPL32] yielded a protein stability index of 3.62 ± 0.3.
RAPQQSVLQLFQSVQLN [SMC2] gave a protein stability index of 2 ± 0.05.
Sequence RASIEYYVGQVMRNNES [DIS3] has a protein stability index of 3.22 ± 0.067.
For RAYRIIRAHQTELTHHL [QCR7], the protein stability index was 3.03 ± 0.11.
Sequence RDGGLRLGEMERDCVIA [RET1] has a protein stability index of 3.15 ± 0.18.
RDKKEKKQAQKQTKLRK [SMB1] showed a protein stability index of 3.43 ± 0.072.
Sequence RDLSEASVYPEYALPKT [RPS26A] has a protein stability index of 3.11 ± 0.078.
For REGLIDTAVKTAETGYI [RPO21], the protein stability index was 1.13 ± 0.058.
Sequence REKRDRTHFKRMRFPPF [PRP8] has a protein stability index of 2.27 ± 0.05.
RENMICKIDFQKNFMDQ [RRI2] gave a protein stability index of 2.9 ± 0.13.
In the case of RERRAALTDFERFQVMV [RPL14A], the protein stability index is reported as 1.77 ± 0.12.
Sequence RESFEDNVVRFLNEARD [RPO21] has a protein stability index of 3.21 ± 0.15.
RETDPLVYNMTSFEQGE [RPT4] gave a protein stability index of 3.09 ± 0.12.
With RETLVKTWEKVTLDFGN [SMC2] the protein stability index was 1.77 ± 0.063.
Sequence RFAFSVIWELDDSANIV [DIS3] has a protein stability index of 2.63 ± 0.06.
RFISDLLWLVLIHPENF [SWI1] gave a protein stability index of 1.82 ± 0.081.
In the case of RFKSQFLYVLIPAGIYW [QCR8], the protein stability index is reported as 1.75 ± 0.14.
Sequence RFKYAPGTIVLYAERVQ [RPS3] has a protein stability index of 1.61 ± 0.072.
Work on RFNVVKVSAAAGKANKQ [RPS11A] yielded a protein stability index of 1.44 ± 0.068.
RFVLSDDYSNLKREERQ [SMC3] showed a protein stability index of 2.27 ± 0.085.
For RFYQLGVDLKLKYSKRR [CSN12], the protein stability index was 1.26 ± 0.12.
RGDSTETSSFGSMFSGD [RRI1] gave a protein stability index of 3.5 ± 0.087.
RGHRIRREFKQYSLERN [PRP8] showed a protein stability index of 2.44 ± 0.17.
In the case of RGHVLQFEWHQNSLLTN [SNF2], the protein stability index is reported as 1.93 ± 0.055.
Work on RGIPRISTLFQRDRHTL [PRP8] yielded a protein stability index of 2.57 ± 0.095.
Work on RGKNEIIQNAQRDAVTL [RPO21] yielded a protein stability index of 3.3 ± 0.067.
In the case of RGQQVENPTDNFIIWIN [GRR1], the protein stability index is reported as 2.08 ± 0.066.
RGSLDSEHVFDYFFYFL [NUT1] showed a protein stability index of 2.8 ± 0.059.
Work on RGSSSLYTLVINDAGKA [RPL38] yielded a protein stability index of 1.57 ± 0.061.
RHFWGLRVRGQHTKTTG [RPS18A] showed a protein stability index of 1.81 ± 0.062.
RHGSVVEASRRRRSSTN [MED1] gave a protein stability index of 3.19 ± 0.073.
Sequence RIARALKQEGAANKTVV [RPL18A] has a protein stability index of 3.44 ± 0.22.
Sequence RIMEKSVILSVISMFVL [YML031W/NDC1] has a protein stability index of 1.31 ± 0.14.
Work on RIMSRNFYLKRFISDLL [SWI1] yielded a protein stability index of 2.32 ± 0.058.
RIQNRVKLGLNSKMPTR [PRP8] gave a protein stability index of 2.48 ± 0.16.
With RIVNHKTKLWGFKWLNK [LIN1] the protein stability index was 2.87 ± 0.13.
For RKDENQFSYVDSSMTTV [AAR2], the protein stability index was 2.98 ± 0.041.
With RKILKKTFKNPKYESLK [RPN5] the protein stability index was 2.87 ± 0.094.
For RKKRTRRLKRKRRKVRA [RPL41A], the protein stability index was 3.14 ± 0.16.
Work on RKLGLLGDKEDEKQSAK [MTW1] yielded a protein stability index of 3.37 ± 0.083.
In the case of RKMTTDDDINWQELARS [RPT5], the protein stability index is reported as 1.79 ± 0.055.
For RKQRVKKKTKKELELER [SWI1], the protein stability index was 2.69 ± 0.13.
With RKSYKNQIADLSGKFST [ROX3] the protein stability index was 2.76 ± 0.082.
RKVENIRTILVNIHHLL [MED7] gave a protein stability index of 1.55 ± 0.04.
RKVREQEELKKRQELEE [MED2] showed a protein stability index of 1.86 ± 0.039.
Sequence RLFNVVVQDSQTATQLL [SMC2] has a protein stability index of 2.94 ± 0.07.
In the case of RLGEMERDCVIAYGASQ [RET1], the protein stability index is reported as 3.24 ± 0.095.
Sequence RLGLIPLQSMDIEQLEY [RPB3] has a protein stability index of 2.75 ± 0.067.
RLILLLNHRNKNQHRAA [RMP1] gave a protein stability index of 1.44 ± 0.09.
For RLISSKMPGGFTITVAR [FAS2], the protein stability index was 1.65 ± 0.038.
RLLPNGSNKAQISIIDI [YML031W/NDC1] showed a protein stability index of 2.91 ± 0.076.
RLRQGAAKLRTLDYAER [RPL2A] gave a protein stability index of 1.61 ± 0.071.
For RLYLKDQTNHIESDSIL [ECM29], the protein stability index was 2.8 ± 0.062.
With RMYEEASGKEVEKVATA [RPN2] the protein stability index was 2.67 ± 0.25.
In the case of RNSPFWWTNSHHDGKLW [PRP8], the protein stability index is reported as 2.55 ± 0.069.
RNSWNFALIDYFYDLDV [BRN1] gave a protein stability index of 2.18 ± 0.057.
In the case of RPTEKPVGRELDPISLI [RPN13], the protein stability index is reported as 2.95 ± 0.11.
Work on RQKNVIHRAARPTRPDK [RPL15A] yielded a protein stability index of 3.31 ± 0.17.
Sequence RQMNLVITLLNNSSITL [YCS4] has a protein stability index of 1.37 ± 0.05.
With RQPANTKIGAKRIHSVR [RPS8A] the protein stability index was 3.08 ± 0.076.
With RQSSVGSLNATNFSPTP [SNF2] the protein stability index was 2.75 ± 0.049.
Work on RQTGPAKINEVYNNSKD [NSL1] yielded a protein stability index of 3.06 ± 0.087.
RRERRLIFGTIASKMSL [RPT3] showed a protein stability index of 2.31 ± 0.051.
Work on RRIKEAEENLKKRIRLP [YIL149C/MLP2] yielded a protein stability index of 2.26 ± 0.08.
Sequence RRRTYRAHGRINKYESS [RPL17A] has a protein stability index of 1.87 ± 0.2.
Work on RSCVSNSNENGTLERIK [RPN4] yielded a protein stability index of 2.98 ± 0.07.
Sequence RSDGMGNVLLNATVVDS [YLR335W/NUP2] has a protein stability index of 3.44 ± 0.15.
In the case of RSEEEVTKLNVLVDEIK [YIL149C/MLP2], the protein stability index is reported as 3.42 ± 0.15.
In the case of RSILQSLNPALQEKIST [SWI1], the protein stability index is reported as 2.45 ± 0.056.
RSISKELIVSEEIPINS [SIR3] gave a protein stability index of 2.07 ± 0.051.
RSISWAPSIGRWYQLIA [YGL100W/SEH1] showed a protein stability index of 1.26 ± 0.072.
Work on RSKSSHKNERRVLEIQT [SKI6] yielded a protein stability index of 3.22 ± 0.097.
Sequence RSLLLSRVRADDLSTRF [RRP43] has a protein stability index of 2.89 ± 0.21.
RSLRATAEERVGRRAAN [RPL15A] gave a protein stability index of 3.56 ± 0.24.
RSLVREIAGLSPYERRL [RPL36A] gave a protein stability index of 2.86 ± 0.13.
For RSNDPQSSLSKVDIPLE [NUT2], the protein stability index was 3.02 ± 0.098.
In the case of RSPTRRLELLQLSPVKN [SMC4], the protein stability index is reported as 1.38 ± 0.26.
RSQDVRSTDRDRVKVIE [CSL4] showed a protein stability index of 3.01 ± 0.16.
RTAPKSDNVYLKLLVKL [RPL18A] gave a protein stability index of 2.6 ± 0.092.
In the case of RTHFKRMRFPPFDDDEP [PRP8], the protein stability index is reported as 2.65 ± 0.042.
